Experimental data reported in PMC4682967.

What was measured:
[1] = test system: scFv-Fc_(CH3A) of A146_(w/o W-VT) (K370D); assay: non-reducing SDS-PAGE of coexpressed chains; scFv-Fc_(CH3A) and Fc_(CH3B) cotransfected at equivalent molar ratio in HEK293F, Protein A purified from supernatant after 6 days; heterodimer and homodimers told apart by mass, band intensities by ImageJ; conditions: other: non-reducing SDS-PAGE of coexpressed chains
[2] = test system: scFv-Fc_(CH3A) of B239 (K392L/D399L); assay: as above; conditions: other: non-reducing SDS-PAGE of coexpressed chains
[3] = test system: scFv-Fc_(CH3A) of B121 (D399E/K409W); assay: as above; conditions: other: non-reducing SDS-PAGE of coexpressed chains
[4] = test system: scFv-Fc_(CH3A) of A107 and A108 (K370E/K409W); assay: as above; conditions: other: non-reducing SDS-PAGE of coexpressed chains
[5] = test system: scFv-Fc_(CH3A) of W-VT (K409W); assay: as above; conditions: other: non-reducing SDS-PAGE of coexpressed chains
[6] = test system: scFv-Fc_(CH3A) of A205 (E357D/S364W/K370E); assay: as above; conditions: other: non-reducing SDS-PAGE of coexpressed chains
[7] = test system: scFv-Fc_(CH3A) of A146 (K370D/K409W); assay: as above; conditions: other: non-reducing SDS-PAGE of coexpressed chains
[8] = test system: scFv-Fc_(CH3A) of B215 (K392R/K409R/D399L); assay: as above; conditions: other: non-reducing SDS-PAGE of coexpressed chains
[9] = test system: scFv-Fc_(CH3A) of B135 and B168 (D399L/K409W); assay: as above; conditions: other: non-reducing SDS-PAGE of coexpressed chains
[10] = test system: scFv-Fc_(CH3A) of A241 (E357N/S364W/K370E); assay: as above; conditions: other: non-reducing SDS-PAGE of coexpressed chains
[11] = test system: scFv-Fc_(CH3A) of A216 (E357G/S364W/K370E); assay: as above; conditions: other: non-reducing SDS-PAGE of coexpressed chains
[12] = test system: scFv-Fc_(CH3A) of A107_(w/o W-VT) (K370E); assay: as above; conditions: other: non-reducing SDS-PAGE of coexpressed chains
[13] = test system: scFv-Fc_(CH3A) of B256 (K392N/D399L); assay: as above; conditions: other: non-reducing SDS-PAGE of coexpressed chains
[14] = target: human neonatal Fc receptor (FcRn) (human) (UniProt P55899); assay: SPR; human FcRn coated on the chip at approximately 1,000 response units; serially diluted Fc proteins applied; pH 6.0; mean ± SD of two independent experiments, at least 5 data sets each
[15] = test system: scFv-Fc_(CH3A) of B168_(w/o W-VT) (D399L); assay: non-reducing SDS-PAGE of coexpressed chains; scFv-Fc_(CH3A) and Fc_(CH3B) cotransfected at equivalent molar ratio in HEK293F, Protein A purified from supernatant after 6 days; heterodimer and homodimers told apart by mass, band intensities by ImageJ; conditions: other: non-reducing SDS-PAGE of coexpressed chains
[16] = test system: scFv-Fc_(CH3A) of B235 (K392C/D399L); assay: as above; conditions: other: non-reducing SDS-PAGE of coexpressed chains
[17] = test system: scFv-Fc_(CH3A) of A109_(w/o W-VT) (K370M); assay: as above; conditions: other: non-reducing SDS-PAGE of coexpressed chains
[18] = test system: scFv-Fc_(CH3A) of B240 (K392S/K409R/D399L); assay: as above; conditions: other: non-reducing SDS-PAGE of coexpressed chains
[19] = test system: scFv-Fc_(CH3A) of B212 (K392I/D399L); assay: as above; conditions: other: non-reducing SDS-PAGE of coexpressed chains
[20] = test system: scFv-Fc_(CH3A) of A210 (E357A/S364Y/K370E); assay: as above; conditions: other: non-reducing SDS-PAGE of coexpressed chains
[21] = test system: scFv-Fc_(CH3A) of A109 (K370M/K409W); assay: as above; conditions: other: non-reducing SDS-PAGE of coexpressed chains

Substance Fc_(CH3B) of A146_(w/o W-VT) (E357M) has a heterodimer yield (%) [1] of 71%.
In the case of Fc_(CH3B) of B239 (D399S/K392G/K409M), the heterodimer yield (%) [2] is reported as 76.3%.
In the case of Fc_(CH3B) of B121 (K392E/D399V/F405T), the heterodimer yield (%) [3] is reported as 73.3%.
“Fc_(CH3B) of A108 (E357I/S364T/D399V/F405T)” was tested, and the heterodimer yield (%) [4] was 70.5%.
Work on Fc_(CH3B) of W-VT (D399V/F405T) yielded a heterodimer yield (%) [5] of 60.8%.
In the case of Fc_(CH3B) of A205 (E357N/K370R), the heterodimer yield (%) [6] is reported as 88.8%.
Work on Fc_(CH3B) of A146 (E357M/D399V/F405T) yielded a heterodimer yield (%) [7] of 74.5%.
Fc_(CH3B) of B215 (D399W/K392G/K409M) showed a heterodimer yield (%) [8] of 78.1%.
For “Fc_(CH3B) of B168 (K392G/K409M/D399V/F405T)”, the heterodimer yield (%) [9] was 77.7%.
“Fc_(CH3B) of A107_(w/o W-VT), A216 and A241 (E357N)” showed a heterodimer yield (%) [10] of 81%, a heterodimer yield (%) [11] of 80.3% and a heterodimer yield (%) [12] of 78.2%.
For “Fc_(CH3B) of B135 (K392S/K409L/D399V/F405T)”, the heterodimer yield (%) [9] was 67.8%.
With Fc_(CH3B) of B256 (D399V/K392G/K409M) the heterodimer yield (%) [13] was 79.4%.
“wild-type human IgG1 Fc homodimer (Fc-WT) (domain or fragment)” showed a Kd [14] of 35.6 nM, a koff [14] of 5.83e-05 s⁻¹ and a kon [14] of 1640 M⁻¹ s⁻¹.
“Fc_(CH3B) of B168_(w/o W-VT) (K392G/K409M)” gave a heterodimer yield (%) [15] of 60.9%.
Fc_(CH3B) of B235 (D399C/K392G/K409M) showed a heterodimer yield (%) [16] of 89.4%.
“Fc_(CH3B) of A109_(w/o W-VT) (E357M/S364W)” gave a heterodimer yield (%) [17] of 61.6%.
“Fc_(CH3B) of B212 and B240 (D399G/K392G/K409M)” was tested, and the heterodimer yield (%) [18] was 83.3% and the heterodimer yield (%) [19] was 65.3%.
In the case of Fc_(CH3B) of A107 (E357N/D399V/F405T), the heterodimer yield (%) [4] is reported as 93.4%.
Substance Fc_(CH3B) of A210 (E357N/K370H) has a heterodimer yield (%) [20] of 80.8%.
In the case of “Fc_(CH3B) of A109 (E357M/S364W/D399V/F405T)”, the heterodimer yield (%) [21] is reported as 90.5%.
